Data as given in the supplement of paper PMC9112550, “Optimization of the antimicrobial peptide Bac7 by deep mutational scanning” (BMC Biology, 2022).

Each sequence was assayed on Escherichia coli TOP10 (assay: shrunken log2 fold change of peptide-encoding DNA abundance (4.5 h post-induction vs induction); higher = less antimicrobial activity (less host growth inhibition)). Conditions: time post-induction: 4.5 h; library: site-saturation at positions 5, 18, 19, 20.
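Also: peptides expressed intracellularly from a pBAD plasmid library in pooled LB shake-flask culture, induced with 0.3% L-arabinose, DNA abundance read by NGS, three biological replicates, DESeq2 with apeglm shrinkage.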

Row | Sequence | shrunken log2 fold change
1 | RRIRFRPPRLPRPRPRPPCKPRP | 0.352
2 | RRIRSRPPRLPRPRPRPAKVPRP | -0.0898
3 | RRIRFRPPRLPRPRPRPIMKPRP | -0.679
4 | RRIRGRPPRLPRPRPRPHTFPRP | -0.0226
5 | RRIRFRPPRLPRPRPRPGVRPRP | -0.118
6 | RRIRGRPPRLPRPRPRPTQLPRP | 1.02
7 | RRIRIRPPRLPRPRPRPWKIPRP | -0.0311
8 | RRIRVRPPRLPRPRPRPLHRPRP | -0.0175
9 | RRIRRRPPRLPRPRPRPADKPRP | -0.121
10 | RRIRCRPPRLPRPRPRPSGPPRP | 0.124
11 | RRIRGRPPRLPRPRPRPRGFPRP | 0.817
12 | RRIRTRPPRLPRPRPRPKQWPRP | 0.158
13 | RRIRWRPPRLPRPRPRPQAKPRP | 0.00651
14 | RRIRERPPRLPRPRPRPNECPRP | -0.154
15 | RRIRCRPPRLPRPRPRPHRIPRP | -0.492
16 | RRIRYRPPRLPRPRPRPGMWPRP | 0.234
17 | RRIRKRPPRLPRPRPRPISYPRP | -0.0078
18 | RRIRERPPRLPRPRPRPINFPRP | -0.291
19 | RRIRGRPPRLPRPRPRPDFTPRP | 0.22
20 | RRIRERPPRLPRPRPRPIKNPRP | -1.13
21 | RRIRFRPPRLPRPRPRPCYFPRP | -0.379
22 | RRIRTRPPRLPRPRPRPWYAPRP | -0.521
23 | RRIRYRPPRLPRPRPRPIPPPRP | -0.171
24 | RRIRFRPPRLPRPRPRPNNTPRP | -0.999
25 | RRIRWRPPRLPRPRPRPAEYPRP | 0.101

Row | Sequence | shrunken log2 fold change
26 | RRIRMRPPRLPRPRPRPACCPRP | 0.646
27 | RRIRPRPPRLPRPRPRPDQWPRP | -0.0215
28 | RRIRTRPPRLPRPRPRPCANPRP | -0.148
29 | RRIRTRPPRLPRPRPRPAQPPRP | 0.00354
30 | RRIRIRPPRLPRPRPRPWFMPRP | -0.503
31 | RRIRCRPPRLPRPRPRPPYLPRP | -0.87
32 | RRIRGRPPRLPRPRPRPRWFPRP | 0.355
33 | RRIRWRPPRLPRPRPRPHQRPRP | -0.0218
34 | RRIRIRPPRLPRPRPRPITPPRP | -0.421
35 | RRIRIRPPRLPRPRPRPRESPRP | 0.133
36 | RRIRNRPPRLPRPRPRPTNIPRP | -0.312
37 | RRIRIRPPRLPRPRPRPKQIPRP | -0.205
38 | RRIRYRPPRLPRPRPRPRLDPRP | -0.176
39 | RRIRFRPPRLPRPRPRPFPGPRP | -0.00776
40 | RRIRYRPPRLPRPRPRPTWEPRP | -0.0387
41 | RRIRSRPPRLPRPRPRPDRNPRP | -0.228
42 | RRIRNRPPRLPRPRPRPSSRPRP | -0.164
43 | RRIRWRPPRLPRPRPRPPVCPRP | 0.15
44 | RRIRGRPPRLPRPRPRPPWDPRP | 0.832
45 | RRIRGRPPRLPRPRPRPTRPPRP | 1.16
46 | RRIRGRPPRLPRPRPRPRDWPRP | 1.25
47 | RRIRVRPPRLPRPRPRPLTPPRP | 0.758
48 | RRIRLRPPRLPRPRPRPFTHPRP | -0.342
49 | RRIRFRPPRLPRPRPRPRTRPRP | 0.244
50 | RRIRCRPPRLPRPRPRPSCPPRP | -0.407

Row | Sequence | shrunken log2 fold change
51 | RRIRWRPPRLPRPRPRPEQDPRP | -0.0232
52 | RRIRQRPPRLPRPRPRPQGTPRP | 0.193
53 | RRIRKRPPRLPRPRPRPRMLPRP | 0.588
54 | RRIRIRPPRLPRPRPRPNYPPRP | -0.565
55 | RRIRLRPPRLPRPRPRPMLYPRP | -0.232
56 | RRIRARPPRLPRPRPRPAQHPRP | 0.326
57 | RRIRHRPPRLPRPRPRPEATPRP | 0.0573
58 | RRIRTRPPRLPRPRPRPILDPRP | 0.0371
59 | RRIRVRPPRLPRPRPRPTTNPRP | 0.0416
60 | RRIRIRPPRLPRPRPRPRTLPRP | -0.259
61 | RRIRVRPPRLPRPRPRPKHLPRP | 0.0232
62 | RRIRVRPPRLPRPRPRPHIEPRP | -0.763
63 | RRIRRRPPRLPRPRPRPHMVPRP | -0.355
64 | RRIRSRPPRLPRPRPRPVIPPRP | -0.156
65 | RRIRYRPPRLPRPRPRPTLNPRP | -0.54
66 | RRIRMRPPRLPRPRPRPNPPPRP | 0.311
67 | RRIRHRPPRLPRPRPRPGVSPRP | 0.0185
68 | RRIRQRPPRLPRPRPRPRTMPRP | -0.232
69 | RRIRDRPPRLPRPRPRPQRPPRP | 0.0335
70 | RRIRNRPPRLPRPRPRPFHAPRP | -0.0245
71 | RRIRIRPPRLPRPRPRPFCAPRP | -0.088
72 | RRIRYRPPRLPRPRPRPEAVPRP | 0.0685
73 | RRIRRRPPRLPRPRPRPDANPRP | 0.555
74 | RRIRPRPPRLPRPRPRPIKAPRP | -0.00863
75 | RRIRIRPPRLPRPRPRPKWTPRP | -0.116

Row | Sequence | shrunken log2 fold change
76 | RRIRMRPPRLPRPRPRPRHKPRP | 0.402
77 | RRIRARPPRLPRPRPRPDVAPRP | 1.35
78 | RRIRLRPPRLPRPRPRPTDKPRP | -0.251
79 | RRIRPRPPRLPRPRPRPLMPPRP | -0.188
80 | RRIRDRPPRLPRPRPRPKMRPRP | -0.013
81 | RRIRVRPPRLPRPRPRPHNTPRP | -0.353
82 | RRIRNRPPRLPRPRPRPAFLPRP | -0.0726
83 | RRIRCRPPRLPRPRPRPYRLPRP | -0.0743
84 | RRIRTRPPRLPRPRPRPSRIPRP | -0.179
85 | RRIRGRPPRLPRPRPRPNNSPRP | -0.114
86 | RRIRKRPPRLPRPRPRPPIRPRP | -0.104
87 | RRIRGRPPRLPRPRPRPASQPRP | 0.76
88 | RRIRSRPPRLPRPRPRPVIYPRP | -0.226
89 | RRIRRRPPRLPRPRPRPFNTPRP | -0.119
90 | RRIRERPPRLPRPRPRPNQSPRP | -0.236
91 | RRIRTRPPRLPRPRPRPVAPPRP | 0.389
92 | RRIRHRPPRLPRPRPRPIACPRP | 0.0428
93 | RRIRARPPRLPRPRPRPQGIPRP | 0.0477
94 | RRIRYRPPRLPRPRPRPMHDPRP | -0.598
95 | RRIRVRPPRLPRPRPRPRNNPRP | -0.425
96 | RRIRTRPPRLPRPRPRPFMTPRP | -0.12
97 | RRIRVRPPRLPRPRPRPQPWPRP | 0.152
98 | RRIRIRPPRLPRPRPRPLWDPRP | -0.113
99 | RRIRNRPPRLPRPRPRPMFEPRP | 0.29
100 | RRIRERPPRLPRPRPRPKDSPRP | -0.212

Row | Sequence | shrunken log2 fold change
101 | RRIRYRPPRLPRPRPRPHQTPRP | 0.0583
102 | RRIRRRPPRLPRPRPRPVIRPRP | 0.1
103 | RRIRLRPPRLPRPRPRPTFHPRP | 0.258
104 | RRIRGRPPRLPRPRPRPVPWPRP | 0.526
105 | RRIRLRPPRLPRPRPRPKDEPRP | 0.114
106 | RRIRIRPPRLPRPRPRPVATPRP | -0.374
107 | RRIRARPPRLPRPRPRPIAHPRP | 0.13
108 | RRIRERPPRLPRPRPRPIWDPRP | -0.254
109 | RRIRLRPPRLPRPRPRPVKAPRP | -0.0553
110 | RRIRARPPRLPRPRPRPMRCPRP | 0.162
111 | RRIRHRPPRLPRPRPRPWIEPRP | 0.0254
112 | RRIRCRPPRLPRPRPRPETYPRP | -0.34
113 | RRIRIRPPRLPRPRPRPPRGPRP | 0.534
114 | RRIRGRPPRLPRPRPRPAEIPRP | 0.076
115 | RRIRKRPPRLPRPRPRPWHKPRP | -0.145
116 | RRIRERPPRLPRPRPRPPNYPRP | -0.201
117 | RRIRSRPPRLPRPRPRPRPDPRP | 0.218
118 | RRIRRRPPRLPRPRPRPGEHPRP | 0.291
119 | RRIRTRPPRLPRPRPRPRNAPRP | 0.0522
120 | RRIRERPPRLPRPRPRPEWSPRP | 0.0433
121 | RRIRARPPRLPRPRPRPLDVPRP | -0.07
122 | RRIRKRPPRLPRPRPRPSPLPRP | 0.446
123 | RRIRRRPPRLPRPRPRPAFKPRP | 0.291
124 | RRIRSRPPRLPRPRPRPELQPRP | 0.239
125 | RRIRLRPPRLPRPRPRPEWAPRP | -0.0233

Row | Sequence | shrunken log2 fold change
126 | RRIRARPPRLPRPRPRPMDKPRP | 0.0591
127 | RRIRDRPPRLPRPRPRPYSHPRP | -0.471
128 | RRIRPRPPRLPRPRPRPCRQPRP | 0.111
129 | RRIRKRPPRLPRPRPRPKISPRP | -0.0246
130 | RRIRYRPPRLPRPRPRPKEFPRP | -0.00973
131 | RRIRARPPRLPRPRPRPPTAPRP | 0.744
132 | RRIRYRPPRLPRPRPRPLRFPRP | -0.28
133 | RRIRRRPPRLPRPRPRPMGRPRP | 0.464
134 | RRIRWRPPRLPRPRPRPNCSPRP | -0.162
135 | RRIRGRPPRLPRPRPRPATDPRP | 0.531
136 | RRIRDRPPRLPRPRPRPQATPRP | 0.403
137 | RRIRHRPPRLPRPRPRPYPLPRP | -0.641
138 | RRIRPRPPRLPRPRPRPERTPRP | 0.291
139 | RRIRARPPRLPRPRPRPYSPPRP | -0.409
140 | RRIRLRPPRLPRPRPRPDGLPRP | -0.115
141 | RRIRSRPPRLPRPRPRPDVWPRP | 0.49
142 | RRIRWRPPRLPRPRPRPPFAPRP | 0.544
143 | RRIRHRPPRLPRPRPRPSEDPRP | -0.00172
144 | RRIRFRPPRLPRPRPRPRVAPRP | 0.439
145 | RRIRERPPRLPRPRPRPICHPRP | -0.187
146 | RRIRARPPRLPRPRPRPKFQPRP | 0.328
147 | RRIRPRPPRLPRPRPRPQMFPRP | 0.161
148 | RRIRYRPPRLPRPRPRPRPRPRP | 0.463
149 | RRIRQRPPRLPRPRPRPIACPRP | -0.238
150 | RRIRQRPPRLPRPRPRPHPHPRP | -0.136
